Experimental data as given in patent US6946130 (GlaxoSmithKline, dated 2005).

Key:
[1] = target: T1, human interleukin 5 (recombinant human IL-5, expressed in Drosophila Schneider 2 cells) (human, UniProt P05113 20-134); assay: optical biosensor
T1 construct: also called hIL-5

[2] = target: T1, human interleukin 5 (recombinant human …); assay: IL-5R alpha binding inhibition assay (125I-IL-5, Drosophila membranes)
Method: Assays with *Drosophila* membranes containing receptor were performed in MultiscreenGV™ plates (Millipore Corp., Bedford, Mass.) using *Drosophila* tissue culture medium M3 (Lindquist et al., *Drosophila Inf. Serv.*, 58: 163 (1982)) containing 25 mM HEPES buffer pH 7.2 and 0.1% BSA (Binding Buffer). Wells were pre-blocked with 0.1 ml binding buffer. […] After 20 minutes incubation at room temperature, 25 ul of the membrane extract of *Drosophila* S2 cells expressing the α-chain of the human IL5R was added to the wells. After 1 hour further incubation the membranes were collected by vacuum filtration and washed 3× with binding buffer. Filters were dried and counted.
The Fd and κ cDNAs of mAb (2B6) were isolated by PCR using the conditions described above. The gel-purified fragments were subcloned into the pMKFabGene3 vector which had been modified to include the hexa-His sequence 3' of the gene III cDNA, resulting in the plasmid pMKFabGene3H. A functional, IL-5 binding Fab clone containing the 2B6 heavy and light chains was identified by a colony lift assay. Upon removal gene III via Nhe I/SpeI I digestion and self-ligation the heavy chain was fused in frame to the hexa-His, allowing purification as described above.

B1: recombinant Fab containing the 2B6 heavy and light chains (Fd fused to hexa-His) (Fab)
heavy (part 1 of 2): QVQLKESGPGLVAPSQSLSITCTVSGFSLTSYSVHWVRQPPGKGLEWLGVIWASGGTDYNSALMSRLSISKDNSKSQVFLKLNSLQTDDTAMYYCARDPPSSLLRLDYWGQGTTLTVSS
heavy (part 2 of 2): HHHHHH
light: DIVMTQSPSSLSVSAGEKVTMSCKSSQSLLNSGNQKNYLAWYQQKPGQPPKLLIYGASTRESGVPDRFTGSGSGTDFTLSISSVQAEDLAVYYCQNVHSFPFTFGSGTELEIK
notes: Expressed in E. coli from pMKFabGene3H after removal of gene III; also called Fab fragment from 2B6; 2B6 Fab; not shown: murine CH1 (rest of the 2B6 Fd); murine kappa constant region
Kd [1]: ~0.09 nM | IC50 [2]: ~7.5 µg/mL
